Our source for the Km, kcat and kcat/Km values is article PMC5863359, “A novel acetyl xylan esterase enabling complete deacetylation of substituted xylans” (Biotechnology for Biofuels, 2018).

What is called Km is the concentration of substrate that gives half-maximal velocity. Usually kcat stands for the number of substrate molecules converted per active site and unit of time at saturation. As usually defined, the kcat/Km is the turnover number divided by the Michaelis constant.

Substrate in data set [1]: CC(=O)Oc1ccc([N+](=O)[O-])cc1
The experiment in a line: spectrophotometric hydrolysis assay (A410), Michaelis-Menten fit. To be noted: 50 mM HEPES pH 8.0, 30 °C. The class given is biochemical, Flavobacterium johnsoniae. An excerpt:
spectrophotometric hydrolysis assay (A410), Michaelis-Menten fit on FjoAcXE

Substrate in data set [2]: CC(=O)Oc1ccc2c(C)cc(=O)oc2c1
The data set can be described thus: spectrophotometric hydrolysis assay (A354), Michaelis-Menten fit. The class given is biochemical, Flavobacterium johnsoniae. The conditions noted are these: 50 mM HEPES pH 8.0, 10% DMSO, 30 °C. An excerpt: spectrophotometric hydrolysis assay (A354), Michaelis-Menten fit on FjoAcXE

B1: FjoAcXE (Flavobacterium johnsoniae UW101) (protein)
chain: GCTSNKALIKTGDKKEDQNWTGTWATAQMLVEPKNMPPEPGLAQNTLRQIIKVSLGGKQIRLRFSNLFSDQPAVLKSVSVANVTEAPAVDIKTQKILSFKGSPQVTLGADEVVYSDAFDFELQPGQLLAITIHYGEISSNVSGHPGSRTTSYILQGDHINNESFAGAVKTDHWYSIMGVDISSVKNESNVVCLGNSIIDGRGSGTNKQNRWTDILASRLNANKNTAHIGVLNLGIGGNCVVRGGLGPTALNRFDRDVLSQSGTKWLIILEGINDIGGIRKAEDASVTAKEIIEGYKVMIDKAHAKGIKVFGGTILPFEKSFYDAPFKQDARDIVNEWIRTKGNFDAVIDFDKAMASDVGSKTILPDMHDNDFLHPNEKGYQRMGETVDLDLFQ
notes: predicted signal peptide (residues 1-21) removed; N-terminal His6-tag (p15TV-L); codon-optimized synthetic gene, expressed in E. coli BL21(DE3) codon plus
Take B1: in data set [1], the Km was 900 ± 100 µM, the turnover number (kcat) amounted to 121 ± 3 s⁻¹ and the kcat/Km was determined as 128000 M⁻¹ s⁻¹. For the same protein, in data set [2], the Km was determined as 800 ± 100 µM, the kcat is 95.1 ± 4.4 s⁻¹ and the kcat/Km was 115000 M⁻¹ s⁻¹.
